These results are taken from paper PMC12075841.

The nature of data set [1]: NONO immunostaining, paraspeckle count per nucleus. As to conditions: glycan lost; control: NONO WT in NONO-KO HCT116.
Data set [2] in a line: NONO immunostaining, speckle count, HCT116. Particulars: glycan gained; control: 5.5 mM glucose, no OGT.

B1: NONO (Non-POU domain-containing octamer-binding protein): T440A (protein)
parent chain: MQSNKTFNLEKQNHTPRKHHQHHHQQQHHQQQQQQPPPPPIPANGQQASSQNEGLTIDLKNFRKPGEKTFTQRSRLFVGNLPPDITEEEMRKLFEKYGKAGEVFIHKDKGFGFIRLETRTLAEIAKVELDNMPLRGKQLRVRFACHSASLTVRNLPQYVSNELLEEAFSVFGQVERAVVIVDDRGRPSGKGIVEFSGKPAARKALDRCSEGSFLLTTFPRPVTVEPMDQLDDEEGLPEKLVIKNQQFHKEREQPPRFAQPGSFEYEYAMRWKALIEMEKQQQDQVDRNIKEAREKLEMEMEAARHEHQVMLMRQDLMRRQEELRRMEELHNQEVQKRKQLELRQEEERRRREEEMRRQQEEMMRRQQEGFKGTFPDAREQEIRMGQMAMGGAMGINNRGAMPPAPVPAGTPAPPGPATMMPDGTLGLTPPTTERFGQAATMEGIGAIGGTPPAFNRAAPGAEFAPNKRRRY
On to B1, for which the localisation_or_trafficking entry in data set [1] is given as “decreases”.

B2: NONO (Non-POU domain-containing octamer-binding protein): myc-tagged OGT overexpression (protein)
parent chain: B1 parent chain
As for B2, the localisation_or_trafficking entry in data set [2] is on record as “increases”.
